Among the data in paper PMC7803741 (2021) are Kd values, retold here.

As a reminder, the Kd is the equilibrium constant for the complex coming apart. Higher therefore signals weaker binding.

Among the targets are GABARAP K24E (mouse, UniProt Q9DCD6 1-117, K24E); GABARAP K66E (mouse, UniProt Q9DCD6 1-117, K66E); GABARAP E17A (mouse, UniProt Q9DCD6 1-117, E17A); LC3B (mouse, UniProt Q9CQV6 1-120); LC3A (mouse, UniProt Q91VR7 1-121); GABARAPL2 (mouse, UniProt P60521 1-117).
What all share (assay): ITC
A general note: ITC needs no label: the signal is the heat of the interaction.

Assay [1] concerns the target T1, GABAAR-associated protein (GABARAP) (mouse, UniProt Q9DCD6 1-117).
For assay [2], the target named is T1, GABAAR-associated protein (GABARAP). The source holds these as a separate data set.

Like-named read-outs stand apart in the source and are kept apart here. Where only a bound is given, the exact number is not on record here.

T1 sequence (Q9DCD6 whole entry): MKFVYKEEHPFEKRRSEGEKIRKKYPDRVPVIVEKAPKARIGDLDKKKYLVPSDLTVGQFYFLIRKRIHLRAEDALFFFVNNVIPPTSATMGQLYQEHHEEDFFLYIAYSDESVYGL
GABARAP E17A, sequence (Q9DCD6 whole entry E17A): as the sequence (Q9DCD6 whole entry) above, with E17A counted along it
GABARAP K24E, sequence (Q9DCD6 whole entry K24E): as the sequence (Q9DCD6 whole entry) above, with K24E counted along it
GABARAPL2, sequence (P60521 whole entry): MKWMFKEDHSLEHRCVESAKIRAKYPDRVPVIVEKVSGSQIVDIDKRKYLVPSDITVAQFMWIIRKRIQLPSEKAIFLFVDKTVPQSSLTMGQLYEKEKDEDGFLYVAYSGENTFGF
GABARAP K66E, sequence (Q9DCD6 whole entry K66E): as the sequence (Q9DCD6 whole entry) above, with K66E counted along it

Turning to ERDEEYGYECLDGKDCAS [GABAAR γ2 subunit GIM (GABARAP interacting motif, 398–415)], the dissociation constant Kd with GABARAP K24E was above 100 µM; with GABARAP K66E, 23.6 µM; with GABARAP E17A it was 6.8 µM; in assay [1], 6800 nM; in the assay with LC3B it was above 300 µM; with LC3A it was above 300 µM. Further, in the assay with GABARAPL2, the Kd was above 200 µM.

PEDDWTEFSSEEIREARQAAASHAPS [AnkG-WT peptide] showed a Kd in assay [1] of 7 nM.

As for PAPTIDIRPRSATIQMNNATHLQERDEEYGYECLDGKDCASFFCCFEDCR (domain or fragment) [GABAA receptor γ2 subunit 375-424], in assay [2], binding was characterised by a dissociation constant (Kd) of 5.1 µM.

Take PEDDWTRFSSEEIREARQAAASHAPS [AnkG-ER peptide]: the Kd in assay [1] was found to be 7 nM. In other words, the single-digit nanomolar range.

The molecule VEEERVIVSDEEIEEARQKAPLEITEY [AnkB-WR peptide] yielded a Kd in assay [1] above 100000 nM.
